From patent publication US20140087995A1 (published 2014)
Numbered stars: 1 amine (or outer) side, 2 acyl side, 3 side chain; on linkers, the order of the positions; unused ones are H or OH. Bridge positions count the residues as written; N and C are the ends. Side chains are listed from the residue outwards. Ends that are not written are not given here. * marks the point of attachment. C20 diacid = O=C(O)CCCCCCCCCCCCCCCCCCC(=O)*; C18 diacid = O=C(O)CCCCCCCCCCCCCCCCC(=O)*; C16 diacid = O=C(O)CCCCCCCCCCCCCCC(=O)*; γGlu = O=C(O)[C@H](CCC(=O)[*:2])N[*:1]

T1: human calcitonin receptor (human, UniProt P30988 25-474)
T1 construct: whole, on cells; Assay used cell membranes, not intact cells; also called hCTR; hCT
T1 sequence (looked up): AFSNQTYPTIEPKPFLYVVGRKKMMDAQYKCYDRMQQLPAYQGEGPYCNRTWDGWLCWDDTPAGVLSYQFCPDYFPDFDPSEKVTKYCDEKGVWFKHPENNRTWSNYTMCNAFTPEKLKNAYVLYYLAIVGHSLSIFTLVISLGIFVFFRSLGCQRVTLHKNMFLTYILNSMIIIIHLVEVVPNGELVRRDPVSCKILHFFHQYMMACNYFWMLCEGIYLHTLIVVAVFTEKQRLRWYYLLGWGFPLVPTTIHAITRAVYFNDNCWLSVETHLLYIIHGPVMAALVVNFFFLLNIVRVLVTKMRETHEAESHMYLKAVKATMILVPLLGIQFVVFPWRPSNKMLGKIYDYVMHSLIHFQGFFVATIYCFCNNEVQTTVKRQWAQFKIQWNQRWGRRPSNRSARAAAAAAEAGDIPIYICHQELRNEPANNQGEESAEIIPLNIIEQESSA

T2: human amylin receptor (amylin 3(a) receptor: human calcitonin receptor with RAMP-3) (human, UniProt P30988 25-474; O60896 24-148)
T2 construct: whole, on cells; Assay used cell membranes of the Amylin 3(a)/CRE-luc BHK cells, not intact cells; also called hAmylin-R; hAmylinR
T2 sequence (looked up) 1: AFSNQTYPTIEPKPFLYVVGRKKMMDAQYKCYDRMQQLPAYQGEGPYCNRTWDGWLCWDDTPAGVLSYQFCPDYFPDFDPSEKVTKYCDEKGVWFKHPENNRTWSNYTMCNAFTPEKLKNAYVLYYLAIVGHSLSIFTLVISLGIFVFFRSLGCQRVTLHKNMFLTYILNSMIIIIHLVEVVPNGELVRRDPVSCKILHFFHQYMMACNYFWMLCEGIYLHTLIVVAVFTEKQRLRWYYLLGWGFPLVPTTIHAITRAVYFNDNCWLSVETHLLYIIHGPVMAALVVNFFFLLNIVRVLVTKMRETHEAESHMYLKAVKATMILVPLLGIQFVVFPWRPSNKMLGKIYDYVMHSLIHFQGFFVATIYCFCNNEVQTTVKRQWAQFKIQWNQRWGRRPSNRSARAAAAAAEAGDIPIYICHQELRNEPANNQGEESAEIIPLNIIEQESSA
T2 sequence (looked up) 2: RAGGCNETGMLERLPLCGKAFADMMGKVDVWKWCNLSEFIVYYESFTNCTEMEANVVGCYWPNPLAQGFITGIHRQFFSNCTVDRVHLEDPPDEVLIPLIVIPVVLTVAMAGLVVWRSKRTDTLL


Assays:
[1] = target: T1, human calcitonin receptor; experiment: SPA competition with 125I-calcitonin on membranes of BHK cells with human calcitonin receptor (Assay VII)
In short: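 BHK hCTR membranes 35 ng/μL + SPA beads 0.05 mg/well; buffer 50 mM Hepes pH 7.4, 1 mM CaCl2, 5 mM MgCl₂, 0.1% OA, 0.02% Tween20. 120 min, 25° C., shaking. Scintillation count; IC50 by one-site binding competition.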

[2] = target: T1, human calcitonin receptor; experiment: ratio IC50 hCTR / IC50 hAmylin-R (reference: human amylin receptor), SPA competition assays
In short: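 IC₅₀ values were derived by one-site competition analysis of SPA counts. Cell membranes (35 ng/μL) with SPA beads were incubated with test compounds for 120 min at 25° C in Hepes buffer, pH 7.4, containing CaCl2, MgCl₂, OA and Tween20.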

[3] = target: T2, human amylin receptor (amylin 3(a) …); experiment: SPA competition with 125I-rat amylin on membranes of BHK cells with human calcitonin receptor and RAMP-3 (Assay V)
In short: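 Cell membranes were prepared by homogenisation in Na-HEPES/EDTA buffer, pH 7.4, and stored at −80° C. They were then coupled to SPA beads at 35 ng/μL final and exposed to compounds in assay buffer containing CaCl2, MgCl₂, OA and Tween20. After 120 min at 25° C, plates were counted and IC₅₀ derived.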

Binder	IC50 [1] [nM]	Ratio hCT/hAmylin binding [2]	IC50 [3] [nM]
K([γGlu-C16 diacid])CNTATCATQRLANFLRHSSPNFGAIPSSTNVGHNTY-NH2 (disulfide 2-7; N-terminus assumed; SMILES CC[C@H](C)[C@H](NC(=O)[C@H](C)NC(=O)CNC(=O)[C@H](Cc1ccccc1)NC(=O)[C@H](CC(N)=O)NC(=O)[C@@H]1CCCN1C(=O)[C@H](CO)NC(=O)[C@H](CO)NC(=O)[C@H](Cc1c[nH]cn1)NC(=O)[C@H](CCCNC(=N)N)NC(=O)[C@H](CC(C)C)NC(=O)[C@H](Cc1ccccc1)NC(=O)[C@H](CC(N)=O)NC(=O)[C@H](C)NC(=O)[C@H](CC(C)C)NC(=O)[C@H](CCCNC(=N)N)NC(=O)[C@H](CCC(N)=O)NC(=O)[C@@H](NC(=O)[C@H](C)NC(=O)[C@@H]1CSSC[C@H](NC(=O)[C@@H](N)CCCCNC(=O)CC[C@H](NC(=O)CCCCCCCCCCCCCCC(=O)O)C(=O)O)C(=O)N[C@@H](CC(N)=O)C(=O)N[C@@H]([C@@H](C)O)C(=O)N[C@@H](C)C(=O)N[C@@H]([C@@H](C)O)C(=O)N1)[C@@H](C)O)C(=O)N1CCC[C@H]1C(=O)N[C@@H](CO)C(=O)N[C@@H](CO)C(=O)N[C@H](C(=O)N[C@@H](CC(N)=O)C(=O)N[C@H](C(=O)NCC(=O)N[C@@H](Cc1c[nH]cn1)C(=O)N[C@@H](CC(N)=O)C(=O)N[C@H](C(=O)N[C@@H](Cc1ccc(O)cc1)C(N)=O)[C@@H](C)O)C(C)C)[C@@H](C)O) [N^ε1-[(4S)-4-carboxy-4-(15-carboxypentadecanoylamino)butanoyl]-[Arg17,Pro21,Pro27,His34]-h-amylin]	10.8	18.5	0.58
K([γGlu-C18 diacid])CNTATCATQRLANFLRHSSPNFGAIPSSTNVGHNTY-NH2 (disulfide 2-7; N-terminus assumed; SMILES CC[C@H](C)[C@H](NC(=O)[C@H](C)NC(=O)CNC(=O)[C@H](Cc1ccccc1)NC(=O)[C@H](CC(N)=O)NC(=O)[C@@H]1CCCN1C(=O)[C@H](CO)NC(=O)[C@H](CO)NC(=O)[C@H](Cc1c[nH]cn1)NC(=O)[C@H](CCCNC(=N)N)NC(=O)[C@H](CC(C)C)NC(=O)[C@H](Cc1ccccc1)NC(=O)[C@H](CC(N)=O)NC(=O)[C@H](C)NC(=O)[C@H](CC(C)C)NC(=O)[C@H](CCCNC(=N)N)NC(=O)[C@H](CCC(N)=O)NC(=O)[C@@H](NC(=O)[C@H](C)NC(=O)[C@@H]1CSSC[C@H](NC(=O)[C@@H](N)CCCCNC(=O)CC[C@H](NC(=O)CCCCCCCCCCCCCCCCC(=O)O)C(=O)O)C(=O)N[C@@H](CC(N)=O)C(=O)N[C@@H]([C@@H](C)O)C(=O)N[C@@H](C)C(=O)N[C@@H]([C@@H](C)O)C(=O)N1)[C@@H](C)O)C(=O)N1CCC[C@H]1C(=O)N[C@@H](CO)C(=O)N[C@@H](CO)C(=O)N[C@H](C(=O)N[C@@H](CC(N)=O)C(=O)N[C@H](C(=O)NCC(=O)N[C@@H](Cc1c[nH]cn1)C(=O)N[C@@H](CC(N)=O)C(=O)N[C@H](C(=O)N[C@@H](Cc1ccc(O)cc1)C(N)=O)[C@@H](C)O)C(C)C)[C@@H](C)O) [N^ε1-[(4S)-4-carboxy-4-(17-carboxyheptadecanoylamino)butanoyl]-[Arg17,Pro21,Pro27,His34]-h-amylin]	22.7	59.4	0.382
K([γGlu-C20 diacid])CNTATCATQRLAAFLRHSSPNFGAIPSSTNVGPNTY-NH2 (disulfide 2-7; N-terminus assumed; SMILES CC[C@H](C)[C@H](NC(=O)[C@H](C)NC(=O)CNC(=O)[C@H](Cc1ccccc1)NC(=O)[C@H](CC(N)=O)NC(=O)[C@@H]1CCCN1C(=O)[C@H](CO)NC(=O)[C@H](CO)NC(=O)[C@H](Cc1c[nH]cn1)NC(=O)[C@H](CCCNC(=N)N)NC(=O)[C@H](CC(C)C)NC(=O)[C@H](Cc1ccccc1)NC(=O)[C@H](C)NC(=O)[C@H](C)NC(=O)[C@H](CC(C)C)NC(=O)[C@H](CCCNC(=N)N)NC(=O)[C@H](CCC(N)=O)NC(=O)[C@@H](NC(=O)[C@H](C)NC(=O)[C@@H]1CSSC[C@H](NC(=O)[C@@H](N)CCCCNC(=O)CC[C@H](NC(=O)CCCCCCCCCCCCCCCCCCC(=O)O)C(=O)O)C(=O)N[C@@H](CC(N)=O)C(=O)N[C@@H]([C@@H](C)O)C(=O)N[C@@H](C)C(=O)N[C@@H]([C@@H](C)O)C(=O)N1)[C@@H](C)O)C(=O)N1CCC[C@H]1C(=O)N[C@@H](CO)C(=O)N[C@@H](CO)C(=O)N[C@H](C(=O)N[C@@H](CC(N)=O)C(=O)N[C@H](C(=O)NCC(=O)N1CCC[C@H]1C(=O)N[C@@H](CC(N)=O)C(=O)N[C@H](C(=O)N[C@@H](Cc1ccc(O)cc1)C(N)=O)[C@@H](C)O)C(C)C)[C@@H](C)O, also called compound 94)	6.86	46.3	0.148
K([γGlu-C20 diacid])CNTATCATQRLAAFLRHSSPNFGAIPSSTNVGHNTY-NH2 (disulfide 2-7; N-terminus assumed; SMILES CC[C@H](C)[C@H](NC(=O)[C@H](C)NC(=O)CNC(=O)[C@H](Cc1ccccc1)NC(=O)[C@H](CC(N)=O)NC(=O)[C@@H]1CCCN1C(=O)[C@H](CO)NC(=O)[C@H](CO)NC(=O)[C@H](Cc1c[nH]cn1)NC(=O)[C@H](CCCNC(=N)N)NC(=O)[C@H](CC(C)C)NC(=O)[C@H](Cc1ccccc1)NC(=O)[C@H](C)NC(=O)[C@H](C)NC(=O)[C@H](CC(C)C)NC(=O)[C@H](CCCNC(=N)N)NC(=O)[C@H](CCC(N)=O)NC(=O)[C@@H](NC(=O)[C@H](C)NC(=O)[C@@H]1CSSC[C@H](NC(=O)[C@@H](N)CCCCNC(=O)CC[C@H](NC(=O)CCCCCCCCCCCCCCCCCCC(=O)O)C(=O)O)C(=O)N[C@@H](CC(N)=O)C(=O)N[C@@H]([C@@H](C)O)C(=O)N[C@@H](C)C(=O)N[C@@H]([C@@H](C)O)C(=O)N1)[C@@H](C)O)C(=O)N1CCC[C@H]1C(=O)N[C@@H](CO)C(=O)N[C@@H](CO)C(=O)N[C@H](C(=O)N[C@@H](CC(N)=O)C(=O)N[C@H](C(=O)NCC(=O)N[C@@H](Cc1c[nH]cn1)C(=O)N[C@@H](CC(N)=O)C(=O)N[C@H](C(=O)N[C@@H](Cc1ccc(O)cc1)C(N)=O)[C@@H](C)O)C(C)C)[C@@H](C)O, also called compound 93)	17.8	101	0.176
K([γGlu-C20 diacid])CNTATCATQRLARFLRHSSPNFGAIPSSTNVGSNTY-NH2 (disulfide 2-7; N-terminus assumed; SMILES CC[C@H](C)[C@H](NC(=O)[C@H](C)NC(=O)CNC(=O)[C@H](Cc1ccccc1)NC(=O)[C@H](CC(N)=O)NC(=O)[C@@H]1CCCN1C(=O)[C@H](CO)NC(=O)[C@H](CO)NC(=O)[C@H](Cc1c[nH]cn1)NC(=O)[C@H](CCCNC(=N)N)NC(=O)[C@H](CC(C)C)NC(=O)[C@H](Cc1ccccc1)NC(=O)[C@H](CCCNC(=N)N)NC(=O)[C@H](C)NC(=O)[C@H](CC(C)C)NC(=O)[C@H](CCCNC(=N)N)NC(=O)[C@H](CCC(N)=O)NC(=O)[C@@H](NC(=O)[C@H](C)NC(=O)[C@@H]1CSSC[C@H](NC(=O)[C@@H](N)CCCCNC(=O)CC[C@H](NC(=O)CCCCCCCCCCCCCCCCCCC(=O)O)C(=O)O)C(=O)N[C@@H](CC(N)=O)C(=O)N[C@@H]([C@@H](C)O)C(=O)N[C@@H](C)C(=O)N[C@@H]([C@@H](C)O)C(=O)N1)[C@@H](C)O)C(=O)N1CCC[C@H]1C(=O)N[C@@H](CO)C(=O)N[C@@H](CO)C(=O)N[C@H](C(=O)N[C@@H](CC(N)=O)C(=O)N[C@H](C(=O)NCC(=O)N[C@@H](CO)C(=O)N[C@@H](CC(N)=O)C(=O)N[C@H](C(=O)N[C@@H](Cc1ccc(O)cc1)C(N)=O)[C@@H](C)O)C(C)C)[C@@H](C)O, also called compound 83) [N^ε1-[(4S)-4-carboxy-4-(19-carboxynonadecanoylamino)butanoyl]-[Arg14,Arg17,Pro21,Pro27]-h-amylin]	137	146	0.939
